What was measured:
Assay in all cases: flow cytometry on cells
[1] = biological target: CD45RO ECD-GFP (extracellular domain and transmembrane region of CD45RO, phosphatase domains replaced by GFP) (human)
[2] = biological target: full-length human CD45RABC (human) (UniProt P08575)
[3] = biological target: CD45RABC ECD-GFP (extracellular domain and transmembrane region of CD45RABC, phosphatase domains replaced by GFP) (human)
[4] = biological target: full-length human CD45RO (human) (UniProt P08575)

**Q.** What does the source list for “sec49K-His (recombinant N-terminal ectodomain of HAdV-D64 E3/49K, residues 20-353, from insect cells) (domain or fragment)”?
**A.** EC50 [1]: 0.54 nM; EC50 [2]: 1.26 nM; EC50 [3]: 0.55 nM; EC50 [4]: 1.35 nM

— doi:10.1101/2023.02.23.529489
